According to publication PMC12350838:

Key:
[1] = target: BoDV-1 L-P complex (one L-protein with a tetramer of P-protein) (Borna disease virus 1 (BoDV-1)); assay: cryo-EM structure; Sample 2, reaction conditions: L-P complex with 25 μM 23mer template RNA, 20 μM triphosphorylated 6mer primer, 1 mM SAM, 1 mM each NTP, 1 h on ice, diluted to 0.4 mg/ml; single particle analysis, re-extraction in a larger box and 2D classification
[2] = target: BoDV-1 L-P complex (one L-protein with a tetramer of P-protein) (Borna disease virus 1 (BoDV-1)); assay: cryo-EM structure; Sample 1, RNA-free: co-expressed and co-purified L-P complex used immediately after elution, 0.33 mg/ml on grids; single particle analysis with 2D and 3D classification
[3] = target: Borna disease virus 1 (BoDV-1) phosphoprotein (P-protein) (Borna disease virus 1 (BoDV-1)); assay: as above
[4] = target: Borna disease virus 1 (BoDV-1) large protein (L-protein) (Borna disease virus 1 (BoDV-1)); assay: as above

| Substance | percent of particles as dimers [1] [%] | stoichiometry N [1] | percent of particles as tetramers [2] [%] | stoichiometry N [2] | stoichiometry N [3] | stoichiometry N (P-protein chains per L-protein) [4] |
| --- | --- | --- | --- | --- | --- | --- |
| BoDV-1 L-P complex (one L-protein with a tetramer of P-protein) | 6 | 2 | 0.2 | 4 | – | – |
| Borna disease virus 1 (BoDV-1) phosphoprotein (P-protein) (natural protein) | – | – | – | – | 4 | 4 |
